No end group written: not given here.

Experiment [1] concerns the target T1, GST-tagged yeast Mtr4 short arch (GST-Mtr4^SA, residues 638–842), wild type (S. cerevisiae, UniProt P47047 638-842).
T1 sequence (looked up): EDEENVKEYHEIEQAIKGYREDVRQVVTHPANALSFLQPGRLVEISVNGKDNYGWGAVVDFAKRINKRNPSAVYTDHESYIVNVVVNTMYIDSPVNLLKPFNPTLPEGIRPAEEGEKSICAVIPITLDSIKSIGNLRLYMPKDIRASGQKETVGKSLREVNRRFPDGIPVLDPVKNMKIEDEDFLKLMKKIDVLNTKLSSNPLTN
The experiment in a line: pull-down.

In experiment [2] the target is T2, Mtr4-ΔN (helicase region of Mtr4, residues 81–1073) (S. cerevisiae, UniProt P47047 81-1073).
T2 sequence (looked up): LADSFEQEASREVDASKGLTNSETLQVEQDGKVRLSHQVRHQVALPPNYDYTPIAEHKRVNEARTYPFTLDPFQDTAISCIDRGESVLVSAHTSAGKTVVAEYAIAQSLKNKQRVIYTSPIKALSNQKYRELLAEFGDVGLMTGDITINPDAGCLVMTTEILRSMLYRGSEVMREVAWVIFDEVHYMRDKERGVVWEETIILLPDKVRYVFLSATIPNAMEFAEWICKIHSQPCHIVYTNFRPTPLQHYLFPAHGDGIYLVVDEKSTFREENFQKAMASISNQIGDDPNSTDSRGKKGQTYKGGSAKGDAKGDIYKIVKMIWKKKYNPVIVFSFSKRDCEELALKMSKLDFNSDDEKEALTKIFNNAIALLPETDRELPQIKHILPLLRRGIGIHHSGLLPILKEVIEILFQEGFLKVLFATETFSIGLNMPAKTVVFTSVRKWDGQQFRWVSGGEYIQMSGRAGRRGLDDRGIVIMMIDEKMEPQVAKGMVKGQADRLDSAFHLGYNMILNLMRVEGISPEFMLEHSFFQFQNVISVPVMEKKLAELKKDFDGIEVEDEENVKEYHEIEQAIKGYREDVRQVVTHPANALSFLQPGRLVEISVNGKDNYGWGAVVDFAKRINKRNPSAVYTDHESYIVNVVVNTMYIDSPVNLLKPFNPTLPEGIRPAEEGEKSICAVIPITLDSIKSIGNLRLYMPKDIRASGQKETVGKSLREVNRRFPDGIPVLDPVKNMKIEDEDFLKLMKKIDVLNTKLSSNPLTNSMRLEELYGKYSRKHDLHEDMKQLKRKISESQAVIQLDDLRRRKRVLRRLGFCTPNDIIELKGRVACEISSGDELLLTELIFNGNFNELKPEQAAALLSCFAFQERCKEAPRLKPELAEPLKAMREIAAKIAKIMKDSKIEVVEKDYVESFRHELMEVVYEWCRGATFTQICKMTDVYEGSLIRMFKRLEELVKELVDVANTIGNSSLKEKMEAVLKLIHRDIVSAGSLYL
The experiment in a line: ITC. (In general: Isothermal titration calorimetry measures the heat released or taken up as one component is titrated into another.)

B1: Z-tagged Nop53 (residues 48–99) (domain or fragment, S. cerevisiae, UniProt Q12080 48-99, looked up)
chain: GTSDITSLQNDALFHVDVEGDEILKNKLIKRKQIKKVLKSKEILDAVKTNSK
modifications: also: Z-tagged
Regarding B1, in experiment [1], the binding result is on record as “binds”.
Usually Kd stands for the constant that tells how readily two partners part at equilibrium. High values mean weaker binding, low ones tighter binding. Take HVNNDQLFFVDDGGNEDSQDKNEDTMDVDDEDD (domain or fragment, S. cerevisiae, UniProt P40362 78-110, looked up) [Utp18_(prot) (Utp18 residues 78–110)]: in experiment [2], the Kd was ~20 µM.
Take DALFHVDVEGDEILKNKLIKRKQIKKVLKSKEIL (domain or fragment, S. cerevisiae, UniProt Q12080 58-91, looked up) [Nop53_(prot) (Nop53 residues 58–91)]: the Kd in experiment [2] was ~18 µM.

For the origin of these results see publication PMC5688999 (RNA, 2017).
